Assay results taken from patent US20110263454A1, “Methods of Identifying Functional Characteristics of Promoters, Transcription Modifying Proteins and Transcription Modulating Agents” (Salk Institute for Biological Studies, priority 2008, published 2011).

Tests used:
[1] = system: hPPARg2 promoter; assay: NHR-promoter luciferase screen, hPPARg2 promoter; format: cell-based, human; settings: for Luc. act., normalized to lacZ / Normalized Luc. act., normalized to control: PPARG2 promoter, hormone receptor with or without its ligand; for Normalized Luc. act., normalized to control: relative to control; for Results of assays of transcription factor (+/- ligand) with hPPARg2: Table 6d, luciferase activity relative to control (control = 1.00)
Summary of the method: (§1)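 CV-1 cells were co-transfected with 50 ng NHR (homodimer or NHR/RXR heterodimer), 100 ng promoter-luciferase construct and 50 ng LacZ. Luciferase was normalized to LacZ and to a no-NHR/no-ligand control.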

[2] = system: mABCA1 promoter; assay: NHR-promoter luciferase screen, mABCA1 promoter; format: cell-based, mouse; settings: for Luc. act., normalized to lacZ / Normalized Luc. act., normalized to control: ABCA1 promoter, hormone receptor with or without its ligand; for Normalized Luc. act., normalized to control: relative to control; for mABCA1 promoter reporter activity: transcription factor +/- ligand, control = 1.00
Summary of the method: as §1

[3] = system: mUCP2 promoter; assay: NHR-promoter luciferase screen, mUCP2 promoter; format: cell-based, mouse; settings: for Luc. act., normalized to lacZ / Normalized Luc. act., normalized to control: mUCP2 promoter reporter, co-transfected HR, with or without its ligand; for Normalized Luc. act., normalized to control: relative to control; for luciferase activity normalized to lacZ activity and to a control, mUCP2: mUCP2 promoter-luciferase, CV-1 cells, NHR +/- ligand, control = 1.00
Summary of the method: as §1

[4] = system: mCAR promoter; assay: NHR-promoter luciferase screen, mCAR promoter; format: cell-based, mouse; settings: for luciferase activity normalized to lacZ activity and to a control, mCAR: mCAR promoter-luciferase, CV-1 cells, NHR +/- ligand, control = 1.00; for Luc. act., normalized to lacZ / Normalized Luc. act., normalized to control: mCAR promoter, HR/ligand component
Summary of the method: as §1

[5] = system: hIFNg promoter; assay: NHR-promoter luciferase screen, hIFNg promoter; format: cell-based, human; settings: for Luc. act., normalized to lacZ / Normalized Luc. act., normalized to control: IFNg promoter, HR component without or with ligand; for hIFNg promoter reporter activity: transcription factor +/- ligand, control = 1.00
Summary of the method: as §1

[6] = system: mDio2 promoter; assay: NHR-promoter luciferase screen, mDio2 promoter; format: cell-based, mouse; settings: for Luc. act., normalized to lacZ / Normalized Luc. act., normalized to control: Dio2, HR component without or with its ligand; for mDio2 promoter reporter activity: transcription factor +/- ligand, control = 1.00
Summary of the method: as §1

| Molecule | Luc. act., normalized to lacZ [1] | Normalized Luc. act., normalized to control [1] | Results of assays of transcription factor (+/- ligand) with hPPARg2 [1] | Luc. act., normalized to lacZ [2] | Normalized Luc. act., normalized to control [2] | mABCA1 promoter reporter activity [2] | Luc. act., normalized to lacZ [3] | Normalized Luc. act., normalized to control [3] | luciferase activity normalized to lacZ activity and to a control, mUCP2 [3] | luciferase activity normalized to lacZ activity and to a control, mCAR [4] | Luc. act., normalized to lacZ [4] | Normalized Luc. act., normalized to control [4] | Luc. act., normalized to lacZ [5] | Normalized Luc. act., normalized to control [5] | hIFNg promoter reporter activity [5] | Luc. act., normalized to lacZ [6] | Normalized Luc. act., normalized to control [6] | mDio2 promoter reporter activity [6] |
| --- | --- | --- | --- | --- | --- | --- | --- | --- | --- | --- | --- | --- | --- | --- | --- | --- | --- | --- |
| GCNF: Germ Cell Nuclear Factor (NR6A1, GCNF1), cDNA driver (protein, UniProt Q15406 1-480, looked up) Nuclear receptor subfamily 6 …: MERDEPPPSGGGGGGGSAGFLEPPAALPPPPRNGFCQDELAELDPGTISVSDDRAEQRTCLICGDRATGLHYGIISCEGCKGFFKRSICNKRVYRCSRDKNCVMSRKQRNRCQYCRLLKCLQMGMNRKAIREDGMPGGRNKSIGPVQISEEEIERIMSGQEFEEEANHWSNHGDSDHSSPGNRASESNQPSPGSTLSSSRSVELNGFMAFREQYMGMSVPPHYQYIPHLFSYSGHSPLLPQQARSLDPQSYSLIHQLLSAEDLEPLGTPMLIEDGYAVTQAELFALLCRLADELLFRQIAWIKKLPFFCELSIKDYTCLLSSTWQELILLSSLTVYSKQIFGELADVTAKYSPSDEELHRFSDEGMEVIERLIYLYHKFHQLKVSNEEYACMKAINFLNQDIRGLTSASQLEQLNKRYWYICQDFTEYKYTHQPNRFPDLMMCLPEIRYIAGKMVNVPLEQLPLLFKVVLHSCKTSVGKE | 1.4 | 0.7 | 0.69 | 7.6 | 1.4 | 1.36 | 139.9 | 1.3 | 1.27 | 0.78 | 29.68 | 0.8 | 18.4 | 1.2 | 1.15 | 22.7 | 1.4 | 1.44 |
| DAX-1: DAX1 (NR0B1), cDNA driver (protein, UniProt P51843 1-470, looked up) Nuclear receptor subfamily 0 …: MAGENHQWQGSILYNMLMSAKQTRAAPEAPETRLVDQCWGCSCGDEPGVGREGLLGGRNVALLYRCCFCGKDHPRQGSILYSMLTSAKQTYAAPKAPEATLGPCWGCSCGSDPGVGRAGLPGGRPVALLYRCCFCGEDHPRQGSILYSLLTSSKQTHVAPAAPEARPGGAWWDRSYFAQRPGGKEALPGGRATALLYRCCFCGEDHPQQGSTLYCVPTSTNQAQAAPEERPRAPWWDTSSGALRPVALKSPQVVCEAASAGLLKTLRFVKYLPCFQVLPLDQQLVLVRNCWASLLMLELAQDRLQFETVEVSEPSMLQKILTTRRRETGGNEPLPVPTLQHHLAPPAEARKVPSASQVQAIKCFLSKCWSLNISTKEYAYLKGTVLFNPDVPGLQCVKYIQGLQWGTQQILSEHTRMTHQGPHDRFIELNSTLFLLRFINANVIAELFFRPIIGTVSMDDMMLEMLCTKI | 1.9 | 0.9 | 0.94 | 5.8 | 1.0 | 1.04 | 158.6 | 1.4 | 1.44 | 0.96 | 36.74 | 1.0 | 24.7 | 1.6 | 1.55 | 18.7 | 1.2 | 1.19 |
| SHP: Small Heterodimer Partner (NR0B2), cDNA driver (protein, UniProt Q15466 1-257, looked up) Nuclear receptor subfamily 0 …: MSTSQPGACPCQGAASRPAILYALLSSSLKAVPRPRSRCLCRQHRPVQLCAPHRTCREALDVLAKTVAFLRNLPSFWQLPPQDQRRLLQGCWGPLFLLGLAQDAVTFEVAEAPVPSILKKILLEEPSSSGGSGQLPDRPQPSLAAVQWLQCCLESFWSLELSPKEYACLKGTILFNPDVPGLQAASHIGHLQQEAHWVLCEVLEPWCPAAQGRLTRVLLTASTLKSIPTSLLGDLFFRPIIGDVDIAGLLGDMLLLR | 1.9 | 0.9 | 0.93 | 6.8 | 1.2 | 1.21 | 164.1 | 1.5 | 1.49 | 0.95 | 36.17 | 0.9 | 16.0 | 1.0 | 1.01 | 18.4 | 1.2 | 1.17 |
| NR4a3: NR4a3 (NR4A3; NOR1), nuclear hormone receptor cDNA driver (protein, UniProt Q92570 1-626, looked up) Nuclear receptor subfamily 4 …: MPCVQAQYSPSPPGSSYAAQTYSSEYTTEIMNPDYTKLTMDLGSTEITATATTSLPSISTFVEGYSSNYELKPSCVYQMQRPLIKVEEGRAPSYHHHHHHHHHHHHHHQQQHQQPSIPPASSPEDEVLPSTSMYFKQSPPSTPTTPAFPPQAGALWDEALPSAPGCIAPGPLLDPPMKAVPTVAGARFPLFHFKPSPPHPPAPSPAGGHHLGYDPTAAAALSLPLGAAAAAGSQAAALESHPYGLPLAKRAAPLAFPPLGLTPSPTASSLLGESPSLPSPPSRSSSSGEGTCAVCGDNAACQHYGVRTCEGCKGFFKRTVQKNAKYVCLANKNCPVDKRRRNRCQYCRFQKCLSVGMVKEVVRTDSLKGRRGRLPSKPKSPLQQEPSQPSPPSPPICMMNALVRALTDSTPRDLDYSRYCPTDQAAAGTDAEHVQQFYNLLTASIDVSRSWAEKIPGFTDLPKEDQTLLIESAFLELFVLRLSIRSNTAEDKFVFCNGLVLHRLQCLRGFGEWLDSIKDFSLNLQSLNLDIQALACLSALSMITERHGLKEPKRVEELCNKITSSLKDHQSKGQALEPTESKVLGALVELRKICTLGLQRIFYLKLEDLVSPPSIIDKLFLDTLPF | 1.1 | 0.6 | 0.57 | 6.8 | 1.2 | 1.21 | 150.1 | 1.4 | 1.37 | 0.57 | 21.58 | 0.6 | 16.4 | 1.0 | 1.03 | 14.8 | 0.9 | 0.94 |
